Measured values published in US20230416382A1 (Five Prime, published 2023).
Numbering of substitutions follows the chain as printed. Values joined by “and” are separate entries in the source; they are usually repeats but may differ in a detail not shown here. Equal values may be shown once. Blank lines part the entries; values can stand above or below the binder they belong to.

Key:
[1] = biological target: T1, human CCR8 (human, UniProt P51685 1-355); experiment: cell-based or functional assay
[2] = biological target: T1, human CCR8; experiment: flow cytometry on HEK293 cells expressing human CCR8, anti-hIgG BV421 secondary
Method: (§1) To determine the binding potency of anti-CCR8 antibodies, a flow based binding study was performed. HEK293 were transfected using expression vectors containing human CCR8 (hCCR8), cynomolgus CCR8 (cyCCR8) or murine CCR8 (mCCR8). Anti-CCR8 antibodies were tittered in the presence of hCCR8_293 (FIG. 8A), cyCCR8_293 cells (FIG. 8B) or mCCR8_293 cells (FIG. 8C). The cells were subsequently stained with an anti-hIgG secondary antibody conjugated to Brilliant Violet 421 (Biolegend) to visualize bound anti-CCR8 antibodies. The geometric mean fluorescence intensity of each sample was used to determine the binding EC50 of each antibody with Prism v.8 (Table 4; Graphpad).

[3] = biological target: T2, human CX3CR1 (human, UniProt P49238 1-355); experiment: flow cytometry at 10 ug/ml on dye-barcoded mixed 293 lines, anti-hIgG BV421 secondary
T2 construct: whole, on cells; also called hCX3CR1; huCX3CR1
T2 sequence (looked up): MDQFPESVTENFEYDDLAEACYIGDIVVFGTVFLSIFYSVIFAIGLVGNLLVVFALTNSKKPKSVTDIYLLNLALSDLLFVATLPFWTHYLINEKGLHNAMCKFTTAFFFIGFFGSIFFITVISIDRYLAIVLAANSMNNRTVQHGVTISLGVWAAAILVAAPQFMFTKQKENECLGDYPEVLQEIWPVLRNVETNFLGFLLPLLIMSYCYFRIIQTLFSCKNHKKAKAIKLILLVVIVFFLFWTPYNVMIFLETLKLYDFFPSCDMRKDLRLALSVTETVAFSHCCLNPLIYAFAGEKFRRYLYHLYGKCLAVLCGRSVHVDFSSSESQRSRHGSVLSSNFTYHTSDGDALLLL
Description: (§2) To assess antibody binding selectivity, the cell lines were first labelled with unique combinations of fluorescent dyes to permit antibody staining of all cell lines in a single tube. hCCR8_293 cells were labeled with Cell Trace Far Red (Invitrogen). hCCR4_293 cells were labeled with carboxyfluorescein succinimidyl ester (Invitrogen). hCX3CR1_293 cells were labeled with both Cell Trace Far Red and carboxyfluorescein succinimidyl ester. Parental 293 cells were not labeled with dye. Anti-CCR8 antibodies were prepared at a concentration of 10 ug/ml and incubated with labeled hCCR8_293, hCCR4_293, hCX3CR1_293 or parental 293 cells that were pre-mixed at an equivalent ratio. The cells were washed and then subsequently stained with an anti-hIgG secondary antibody conjugated to Brilliant Violet 421 (Biolegend) to visualize bound antibodies. To determine the selectivity of binding, the individual cell lines were first identified in each sample and the geometric median fluorescence intensity of the secondary antibody was obtained for each population (FIG. 9B). […]

[4] = biological target: T3, human CCR4 (human, UniProt P51679 1-360); experiment: as above
T3 construct: whole, on cells; also called hCCR4; huCCR4
T3 sequence (looked up): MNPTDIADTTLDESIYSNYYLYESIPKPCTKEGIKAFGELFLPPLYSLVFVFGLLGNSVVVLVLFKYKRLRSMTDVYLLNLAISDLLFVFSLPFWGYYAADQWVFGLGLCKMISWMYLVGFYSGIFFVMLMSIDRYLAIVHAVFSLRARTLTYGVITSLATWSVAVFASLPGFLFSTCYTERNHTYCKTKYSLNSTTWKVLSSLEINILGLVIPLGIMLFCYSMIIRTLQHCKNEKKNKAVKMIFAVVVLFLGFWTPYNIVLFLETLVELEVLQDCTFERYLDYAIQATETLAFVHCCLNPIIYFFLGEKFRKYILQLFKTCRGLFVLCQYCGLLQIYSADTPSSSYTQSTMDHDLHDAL
Description: as §2

[5] = biological target: T1, human CCR8; experiment: cell-based or functional assay; remark: listed apart in the source
[6] = biological target: T4, cynomolgus CCR8 (Macaca fascicularis (cynomolgus), UniProt O97665 1-356 (rhesus entry)); experiment: flow cytometry on HEK293 cells expressing cynomolgus CCR8, anti-hIgG BV421 secondary
T4 construct: On transfected HEK293 cells (cyCCR8_293); also called cyCCR8; Cyno CCR8
Method: as §1

[7] = biological target: T5, mCCR8; experiment: flow cytometry titration on mCCR8_293 (HEK293) cells, anti-hIgG BV421 secondary
T5 construct: also called murine CCR8; mouse CCR8
T5 receptor: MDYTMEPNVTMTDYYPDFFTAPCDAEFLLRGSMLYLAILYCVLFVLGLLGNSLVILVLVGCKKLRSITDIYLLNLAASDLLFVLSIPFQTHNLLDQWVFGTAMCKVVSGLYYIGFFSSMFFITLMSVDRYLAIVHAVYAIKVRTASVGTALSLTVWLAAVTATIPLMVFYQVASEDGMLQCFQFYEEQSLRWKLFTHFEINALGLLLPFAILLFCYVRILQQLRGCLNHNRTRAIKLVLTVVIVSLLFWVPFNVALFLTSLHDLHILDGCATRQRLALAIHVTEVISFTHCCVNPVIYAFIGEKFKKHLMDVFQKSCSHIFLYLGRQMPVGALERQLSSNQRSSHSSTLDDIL
Method: as §1

[8] = biological target: T4, cynomolgus CCR8; experiment: flow cytometry titration on cyCCR8_293 (HEK293) cells, anti-hIgG BV421 secondary
Method: as §1

[9] = biological target: T2, human CX3CR1; experiment: flow cytometry on mixed dye-labelled HEK293 transfectants, signal compared with parental 293
Description: as §2

[10] = biological target: T3, human CCR4; experiment: as above
Description: as §2

T4 sequence (O97665 other isoform, or with tags, fused parts or gaps): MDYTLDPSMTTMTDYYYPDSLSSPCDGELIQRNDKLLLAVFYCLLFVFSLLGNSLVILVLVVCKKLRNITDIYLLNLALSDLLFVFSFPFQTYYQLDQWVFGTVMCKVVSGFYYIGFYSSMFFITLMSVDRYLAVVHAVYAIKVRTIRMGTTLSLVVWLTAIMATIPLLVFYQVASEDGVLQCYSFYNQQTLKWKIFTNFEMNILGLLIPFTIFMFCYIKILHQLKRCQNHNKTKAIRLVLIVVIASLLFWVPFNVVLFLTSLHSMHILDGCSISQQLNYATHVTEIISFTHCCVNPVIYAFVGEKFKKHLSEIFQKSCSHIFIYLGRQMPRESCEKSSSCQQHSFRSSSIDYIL
T1 sequence (P51685 whole entry): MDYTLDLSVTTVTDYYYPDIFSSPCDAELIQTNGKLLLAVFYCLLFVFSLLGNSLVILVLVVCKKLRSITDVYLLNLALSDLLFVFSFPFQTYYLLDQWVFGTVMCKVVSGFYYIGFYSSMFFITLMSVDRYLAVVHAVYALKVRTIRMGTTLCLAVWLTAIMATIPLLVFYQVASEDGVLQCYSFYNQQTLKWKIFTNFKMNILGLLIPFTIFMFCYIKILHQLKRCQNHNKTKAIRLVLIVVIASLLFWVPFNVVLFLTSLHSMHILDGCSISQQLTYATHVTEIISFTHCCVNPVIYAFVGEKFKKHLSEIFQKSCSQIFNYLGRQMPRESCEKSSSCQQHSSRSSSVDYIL

B1: I3145 (antibody, V domains shown)
VH: EVQLVETGGGLIQPGGSLRLSCAASGFTVSSNYMSWVRQAPGKGLEWVSVIYSGGSTYYADSVKGRFTISRDNSKNTLYLQMNSLRAEDTAVYYCARGLGSADYWGQGTLVTVSS
VL: DVVMTQSPLSLPVTLGQPASISCRSSQSLLHSNGNTYLNWFQQRPGQSPRRLIYKVSIRDSGVPDRFSGSGSGTDFTLKISRVEAEDVGLYYCMQSTQWPITFGGGTKLEIK
notes: also called anti-CCR8 antibody clone I3145
FcR reporter activation EC50 (Hut78 target cells, Jurkat FcγRIIIa NFAT-luciferase) [1]: 0.569 µg/mL and 3790 pM
EC50 [2]: 2.43 µg/mL and 16.2 nM
binding result [3]: no binding (tested: 10 ug/ml)
binding result [4]: no binding (tested: 10 ug/ml)

B2: I2676 (antibody, V domains shown)
VH: QVQLVESGGGVVQPGRSLRLSCAASGFTFSSYAMHWVRQAPGKGLEWVAVISYDGSNKYYADSVKGRFTISRDNSKNTLYLQMNSLRAEDTAVYYCARVRDRAFDIWGQGTMVTVSS
VL: QAVLTQPASLSASPGASASLTCTLRSGINVGTYRIYWYQQKPGSPPQYLLRYKSDSDKQQGSGVPSRFSGSKDASANAGILLISGLQSEDEADYYCMIWHSSARNWVFGGGTKLTVL
notes: also called anti-CCR8 antibody clone I2676
FcR reporter activation EC50 (Hut78 target cells, Jurkat FcγRIIIa NFAT-luciferase) [1]: 0.00592 µg/mL and 39.4 pM
NK Killing EC50 (primary human NK cells, TALL1 target cells) [5]: 0.000856 µg/mL and 6 pM
EC50 [2]: 0.18 µg/mL and 1.2 nM
EC50 [6]: 0.3 µg/mL and 2 nM
binding result [7]: no binding (tested: about 30 ug/ml (log 1.5))
binding result [3]: no binding (tested: 10 ug/ml)
binding result [4]: no binding (tested: 10 ug/ml)

B3: I3144 (antibody, V domains shown)
VH: B2 VH
VL: B2 VL
notes: also called anti-CCR8 antibody clone I3144
FcR reporter activation EC50 (Hut78 target cells, Jurkat FcγRIIIa NFAT-luciferase) [1]: 0.0091 µg/mL and 60.8 pM
EC50 [2]: 4.6 nM and 0.69 µg/mL
EC50 (read off the curve) [8]: ~1 µg/mL
binding result [3]: no binding (tested: 10 ug/ml)
binding result [4]: no binding (tested: 10 ug/ml)

B6: I2677 (antibody, V domains shown)
VH: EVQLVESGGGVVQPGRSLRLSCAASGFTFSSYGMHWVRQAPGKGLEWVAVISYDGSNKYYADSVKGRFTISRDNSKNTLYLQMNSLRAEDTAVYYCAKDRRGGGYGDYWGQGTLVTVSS
VL: B2 VL with K113Q
notes: also called anti-CCR8 antibody clone I2677
FcR reporter activation EC50 (Hut78 target cells, Jurkat FcγRIIIa NFAT-luciferase) [1]: 0.116 µg/mL and 772 pM
EC50 [2]: 0.13 µg/mL and 0.9 nM
EC50 [6]: 9.6 µg/mL and 64 nM
binding result [9]: no binding (tested: 10 ug/ml)
binding result [10]: no binding (tested: 10 ug/ml)

Second part, led by results:

FcR reporter activation EC50 (Hut78 target cells, Jurkat FcγRIIIa NFAT-luciferase) [1]: 32.1 pM and 0.00482 µg/mL
EC50 [2]: 0.2 µg/mL and 1.3 nM
B4: I3210 (antibody, V domains shown)
VH: B2 VH
VL: QAVLTQPASLSASPGASASLTCTLRSGINVGTYRIYWYQQKPGSPPQYLLRIIKSGSSDKQQGSGVPSRFSGSKDASANAGILLISGLQSEDEADYYCMIWHSSARNWVFGGGTKLTVLG
notes: also called anti-CCR8 antibody clone I3210
NK Killing EC50 (primary human NK cells, TALL1 target cells) [5]: 0.00065 µg/mL and 4.5 pM

FcR reporter activation EC50 (Hut78 target cells, Jurkat FcγRIIIa NFAT-luciferase) [1]: 0.00455 µg/mL and 30.4 pM
EC50 [2]: 0.16 µg/mL and 1.1 nM
B5: I3213 (antibody, V domains shown)
VH: B2 VH
VL: QAVLTQPASLSASPGASASLTCTLRSGINLGTYRIYWYQQKPGSPPQYLLRYKSDSDKQQGSGVPSRFSGSKDASANAGILLISGLQSEDEADYYCMIWHSSARNWVFGGGTKLTVLG
notes: also called anti-CCR8 antibody clone I3213
NK Killing EC50 (primary human NK cells, TALL1 target cells) [5]: 0.000602 µg/mL and 4.2 pM
